{
  "source": "the RNAGym collection of RNA variant scans (doi:10.1093/nar/gkz1192)",
  "parents": {"B1": {"name": "CPEB3 Ribozyme (parent)", "chain": "UAACAGGGGGCCACAGCAGAAGCGUUCACGUCGCAGCCCCUGUCAGAUUCUGGUGAAUCUGCGAAUUCUGCUGUAUAUCUC"}},
  "data": [
    {"variants_of": "B1", "experiment": "self-cleavage, relative activity (ratio to wild type); higher = more cleavage; in vitro, sequencing", "how_it_was_run": "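CPEB3 self-cleaving ribozyme mutant libraries were made by rounds of error-prone PCR, barcoded, and transcribed in vitro with T7 RNA polymerase for 5 hours at 37°C. Cleavage occurred during transcription and a 15 min DNase I step before EDTA stop. RNAs were reverse transcribed with template switching and Illumina-sequenced, with DNA sequencing mapping barcodes to variants. Relative activity is the variant's cleaved/total read fraction divided by wild type's (minimum 5 reads), averaged across three batches.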", "values": [
      {"variant": "C11U A64G", "self-cleavage": 0.34},
      {"variant": "C12A A56G", "self-cleavage": 0.87},
      {"variant": "C12A A56U", "self-cleavage": 0.81},
      {"variant": "C11G A45U", "self-cleavage": 0.23},
      {"variant": "C11G A45C", "self-cleavage": 0.07},
      {"variant": "C11G A45G", "self-cleavage": 0.35},
      {"variant": "C11U U26C", "self-cleavage": 0.31},
      {"variant": "C11U U26A", "self-cleavage": 0.36},
      {"variant": "C11U G73A", "self-cleavage": 1.25},
      {"variant": "C11G U72C", "self-cleavage": 0.69},
      {"variant": "C12A U72C", "self-cleavage": 1.19},
      {"variant": "C12G U41G", "self-cleavage": 0.14},
      {"variant": "C12G U41C", "self-cleavage": 1.09},
      {"variant": "C12A U31C", "self-cleavage": 1.14},
      {"variant": "C12A U31A", "self-cleavage": 0.65},
      {"variant": "C12G U78C", "self-cleavage": 0.71},
      {"variant": "C11U C62U", "self-cleavage": 0.11},
      {"variant": "C12A C29U", "self-cleavage": 0.7},
      {"variant": "C11U C14A", "self-cleavage": 0.93},
      {"variant": "C12G U76C", "self-cleavage": 0.66},
      {"variant": "C11G U69G", "self-cleavage": 0.14},
      {"variant": "C11G U69A", "self-cleavage": 0.11},
      {"variant": "C11G U69C", "self-cleavage": 0.25},
      {"variant": "C12A C68G", "self-cleavage": 0.52},
      {"variant": "C12A A13G", "self-cleavage": 0.89},
      {"variant": "C12A A13C", "self-cleavage": 1.23},
      {"variant": "C12A A13U", "self-cleavage": 1.25},
      {"variant": "C12G A45C", "self-cleavage": 0.12},
      {"variant": "C12G U67A", "self-cleavage": 0.23},
      {"variant": "C12G U67G", "self-cleavage": 0.12},
      {"variant": "C12G U67C", "self-cleavage": 0.08},
      {"variant": "C11U U48C", "self-cleavage": 0.31},
      {"variant": "C11U U48A", "self-cleavage": 0.24},
      {"variant": "C12A U67C", "self-cleavage": 0.33},
      {"variant": "C12A U67A", "self-cleavage": 0.69},
      {"variant": "C11G G30U", "self-cleavage": 0.09},
      {"variant": "C12G A15G", "self-cleavage": 0.1},
      {"variant": "C11U C38A", "self-cleavage": 0.06},
      {"variant": "C11G", "self-cleavage": 0.52},
      {"variant": "C11U", "self-cleavage": 0.44},
      {"variant": "C11U A15G", "self-cleavage": 0.4},
      {"variant": "C11U A15U", "self-cleavage": 0.35},
      {"variant": "C11U A15C", "self-cleavage": 0.5},
      {"variant": "C12A G52A", "self-cleavage": 1.23},
      {"variant": "C12A A20U", "self-cleavage": 0.32},
      {"variant": "C12A A20G", "self-cleavage": 1.17},
      {"variant": "C12U C23U", "self-cleavage": 0.52},
      {"variant": "C11G U49A", "self-cleavage": 0.6},
      {"variant": "C11G U49G", "self-cleavage": 0.31},
      {"variant": "C11G U54A", "self-cleavage": 0.28},
      {"variant": "C11G U54C", "self-cleavage": 0.49},
      {"variant": "C12U A45U", "self-cleavage": 0.83},
      {"variant": "C12U A45G", "self-cleavage": 1.25},
      {"variant": "C12U A45C", "self-cleavage": 0.64},
      {"variant": "C11U G42A", "self-cleavage": 0},
      {"variant": "C11G A18G", "self-cleavage": 0.54},
      {"variant": "C11G A18U", "self-cleavage": 0.39},
      {"variant": "C12G A20G", "self-cleavage": 0.44},
      {"variant": "C11G U43C", "self-cleavage": 0.29},
      {"variant": "C11G U43A", "self-cleavage": 0.67},
      {"variant": "C12G C17G", "self-cleavage": 0.27},
      {"variant": "C12A U78A", "self-cleavage": 1.21},
      {"variant": "C12A U78C", "self-cleavage": 1.04},
      {"variant": "C12G A28U", "self-cleavage": 0.26},
      {"variant": "C11U U49A", "self-cleavage": 0.32},
      {"variant": "C11U U49C", "self-cleavage": 0.24},
      {"variant": "C11U A77G", "self-cleavage": 0.41},
      {"variant": "C11U A77U", "self-cleavage": 0.47},
      {"variant": "C11G U26C", "self-cleavage": 0.24},
      {"variant": "C11G U26A", "self-cleavage": 0.34},
      {"variant": "C11G C14U", "self-cleavage": 0.93},
      {"variant": "C12G C50G", "self-cleavage": 0.28},
      {"variant": "C12G G30A", "self-cleavage": 0.29},
      {"variant": "C12G U69C", "self-cleavage": 0.11},
      {"variant": "C12G U69A", "self-cleavage": 0.3},
      {"variant": "C11G U74A", "self-cleavage": 0.96},
      {"variant": "C11G U74G", "self-cleavage": 0.84},
      {"variant": "C11G U74C", "self-cleavage": 0.91},
      {"variant": "C11G G73C", "self-cleavage": 0.97},
      {"variant": "C11A U78A", "self-cleavage": 0.47},
      {"variant": "C11A U78C", "self-cleavage": 0.31},
      {"variant": "C11U A18U", "self-cleavage": 0.24},
      {"variant": "C11U A18C", "self-cleavage": 0.39},
      {"variant": "C11U A18G", "self-cleavage": 0.31}
    ]}
  ]
}
